Reference: patent publication CN110840830A (BEIJING DONGFANG BIOTECH CO LTD, dated 2020)

Experiments:
[1] = molecular target: T1, 细胞表面CTLA-4抗原 (CTLA-4 on cells) (UniProt P16410 36-223, limits assumed); assay: cell-based or functional assay
T1 sequence (looked up): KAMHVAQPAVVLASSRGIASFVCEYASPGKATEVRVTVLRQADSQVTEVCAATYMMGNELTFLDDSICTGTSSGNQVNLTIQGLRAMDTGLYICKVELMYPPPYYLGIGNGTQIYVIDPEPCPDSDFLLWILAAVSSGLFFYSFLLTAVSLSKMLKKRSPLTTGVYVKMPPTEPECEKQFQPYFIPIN

[2] = molecular target: T1, 细胞表面CTLA-4抗原 (CTLA-4 on cells); assay: flow cytometry on CHO cells over-expressing CTLA-4, Alexa488 anti-human IgG Fc
[3] = molecular target: T2, CTLA-4 (antigen coated on ELISA plates and immunotubes) (UniProt P16410 36-161, limits assumed); assay: ELISA, full antibody on coated CTLA-4, anti-human IgG-HRP
T2 construct: also called CTLA-4抗原; 细胞毒性T淋巴细胞相关抗原4
T2 sequence (looked up): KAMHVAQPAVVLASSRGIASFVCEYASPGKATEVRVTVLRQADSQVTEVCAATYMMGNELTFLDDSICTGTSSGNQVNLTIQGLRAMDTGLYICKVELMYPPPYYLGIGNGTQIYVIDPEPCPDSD

B1: 全抗N-2 (antibody, human IgG1, kappa, V domains shown)
VH: QVQLVESGGGVVQPGRSLRLSCAASGFTFSSIFKRWVRQAPGKGLEWVTFISYDGLDHINGDSVKGRFTISRDNSKNTLYLQMNSLRAEDTAIYYCARRYRWWGKAMDYWGQGTLVTVSS
VL: DIVMTQSPLSLPVTPGEPASISCKSSQSVIDSKGYTYLGWYLQKPGQSPQLLIYLGTQKSSGVPDRFSGSGSGTDFTLKISRVEAEDVGVYYCLQRGHIPITFGQGTKLEIKR
notes: also called 抗CTLA-4全抗体N-2
In the case of B1, the “混合淋巴细胞反应(MLR), CD4+ T细胞增殖 (cck8), EC50” value [1] is reported as 8.31 nM, the EC50 [2] is reported as 0.00895 µg/mL and the EC50 [3] is reported as 0.11 µg/mL.

B2: 全抗N-1 (antibody, human IgG1, kappa, V domains shown)
VH: QVQLVESGGGVVQPGRSLRLSCAASGFTFSGYNGNWVRQAPGKGLEWVTFISYDGLNDVKADSVKGRFTISRDNSKNTLYLQMNSLRAEDTAIYYCARRYRWWGKAMDYWGQGTLVTVSS
VL: DIVMTQSPLSLPVTPGEPASISCKSSQSVIDSKGYTYLGWYLQKPGQSPQLLIYLGTQKSSGVPDRFSGSGSGTDFTLKISRVEAEDVGVYYCLQRGHIPITFGQGTKLEIKR
notes: also called 抗CTLA-4全抗体N-1
For B2, the “混合淋巴细胞反应(MLR), CD4+ T细胞增殖 (cck8), EC50” value [1] was 7.34 nM, the EC50 [2] was 0.00709 µg/mL and the EC50 [3] was 0.163 µg/mL.

B3: 全抗N-3 (antibody, human IgG1, kappa, V domains shown)
VH: QVQLVESGGGVVQPGRSLRLSCAASGFTFSGIFSSWVRQAPGKGLEWVTFISYDSLKQKDGDSVKGRFTISRDNSKNTLYLQMNSLRAEDTAIYYCARRYRWWGKAMDYWGQGTLVTVSS
VL: DIVMTQSPLSLPVTPGEPASISCKSSQSVIDSKGYTYLGWYLQKPGQSPQLLIYLGTQKSSGVPDRFSGSGSGTDFTLKISRVEAEDVGVYYCLQRGHIPITFGQGTKLEIKR
notes: also called 抗CTLA-4全抗体N-3
For B3, the “混合淋巴细胞反应(MLR), CD4+ T细胞增殖 (cck8), EC50” value [1] was 14.2 nM, the EC50 [2] was 0.00896 µg/mL and the EC50 [3] was 0.264 µg/mL.

B4: 全抗N-4 (antibody, human IgG1, kappa, V domains shown)
VH: QVQLVESGGGVVQPGRSLRLSCAASGFTFSAFYNPWVRQAPGKGLEWVTFISYDGVYFHFGDSVKGRFTISRDNSKNTLYLQMNSLRAEDTAIYYCARRYRWWGKAMDYWGQGTLVTVSS
VL: DIVMTQSPLSLPVTPGEPASISCKSSQSVIDSKGYTYLGWYLQKPGQSPQLLIYLGTQKSSGVPDRFSGSGSGTDFTLKISRVEAEDVGVYYCLQRGHIPITFGQGTKLEIKR
notes: also called 抗CTLA-4全抗体N-4
In the case of B4, the “混合淋巴细胞反应(MLR), CD4+ T细胞增殖 (cck8), EC50” value [1] is reported as 15.4 nM, the EC50 [2] is reported as 0.0111 µg/mL and the EC50 [3] is reported as 0.0922 µg/mL.

B5: 全抗N-8 (antibody, human IgG1, kappa, V domains shown)
VH: QVQLVESGGGVVQPGRSLRLSCAASGFTFSGFSICWVRQAPGKGLEWVTFISYDGLLFLIADSVKGRFTISRDNSKNTLYLQMNSLRAEDTAIYYCARRYRWWGKAMDYWGQGTLVTVSS
VL: DIVMTQSPLSLPVTPGEPASISCRSSQTVFDSHGQTYLQWYLQKPGQSPQLLIYGASRQVSGVPDRFSGSGSGTDFTLKISRVEAEDVGVYYCMQVWHLPITFGQGTKLEIKR
notes: also called 抗CTLA-4全抗体N-8
For B5, the “混合淋巴细胞反应(MLR), CD4+ T细胞增殖 (cck8), EC50” value [1] was 7.32 nM, the EC50 [2] was 0.00649 µg/mL and the EC50 [3] was 0.164 µg/mL.

B6: 全抗N-5 (antibody, human IgG1, kappa, V domains shown)
VH: QVQLVESGGGVVQPGRSLRLSCAASGFTFSGFFNRWVRQAPGKGLEWVTFISYDALKDFYADSVKGRFTISRDNSKNTLYLQMNSLRAEDTAIYYCARRYRWWGKAMDYWGPGTLVTVSS
VL: DIVMTQSPLSLPVTPGEPASISCRSSQTVFDSHGQTYLQWYLQKPGQSPQLLIYGASRQVSGVPDRFSGSGSGTDFTLKISRVEAEDVGVYYCMQVWHLPITFGQGTKLEIKR
notes: also called 抗CTLA-4全抗体N-5; N-5的全抗体
In the case of B6, the “混合淋巴细胞反应(MLR), CD4+ T细胞增殖 (cck8), EC50” value [1] is reported as 4.95 nM, the EC50 [2] is reported as 0.00612 µg/mL and the EC50 [3] is reported as 0.0689 µg/mL.

B7: 全抗N-6 (antibody, human IgG1, kappa, V domains shown)
VH: QVQLVESGGGVVQPGRSLRLSCAASGFTFSSNTLRWVRQAPGKGLEWVTFISYDSLFLDQGDSVKGRFTISRDNSKNTLYLQMNSLRAEDTAIYYCARRYRWWGKAMDYWGQGTLVTVSS
VL: DIVMTQSPLSLPVTPGEPASISCRSSQTVFDSHGQTYLQWYLQKPGQSPQLLIYGASRQVSGVPDRFSGSGSGTDFTLKISRVEAEDVGVYYCMQVWHLPITFGQGTKLEIKR
notes: also called 抗CTLA-4全抗体N-6
B7 was tested, and the “混合淋巴细胞反应(MLR), CD4+ T细胞增殖 (cck8), EC50” value [1] was 6.67 nM, the EC50 [2] was 0.00705 µg/mL and the EC50 [3] was 0.127 µg/mL.

B8: 全抗N-7 (antibody, human IgG1, kappa, V domains shown)
VH: QVQLVESGGGVVQPGRSLRLSCAASGFTFSGIYCNWVRQAPGKGLEWVTFISYDSILNVIADSVKGRFTISRDNSKNTLYLQMNSLRAEDTAIYYCARRYRWWGKAMDYWGQGTLVTVSS
VL: DIVMTQSPLSLPVTPGEPASISCRSSQTVFDSHGQTYLQWYLQKPGQSPQLLIYGASRQVSGVPDRFSGSGSGTDFTLKISRVEAEDVGVYYCMQVWHLPITFGQGTKLEIKR
notes: also called 抗CTLA-4全抗体N-7
B8 was tested, and the “混合淋巴细胞反应(MLR), CD4+ T细胞增殖 (cck8), EC50” value [1] was 6.31 nM, the EC50 [2] was 0.00792 µg/mL and the EC50 [3] was 0.0865 µg/mL.
